This assay concerns the target F-actin (rabbit skeletal muscle α-actin filaments) (rabbit) (UniProt P68135). In words: co-sedimentation.

Substance F-tractinopt-mCherry (peptide) displayed a Kd of 8.5 µM.
